We go through 2 substances from patent US20230340069A1.

In one experiment the target is human IgG1. In words: ELISA, IgG1 antibody coated on plate, detection with Strep-Tactin-HRP. On the technique in general: An ELISA detects its analyte on a solid surface through an enzyme-linked reagent.
Experiment [1] has as its target Polyclonal human IgG Gammanorm (human). In words: Fc binding protein coupled to Praesto Pure45 agarose beads; polyclonal human IgG Gammanorm (2.2 mg/ml) loaded; mass of hIgG injected at 10% breakthrough, 6 min residence time.

Turning to Protein A domain Z, in the experiment with human IgG1, the Kd (commonly the concentration at which binding is half-saturated) came to 3.4 nM.

As to R PROTEIN A, the dynamic binding capacity in experiment [1] came to 37.4 mg/mL.
